# Experimental data from patent US10335470B2, “Immunogenic compositions comprising progastrin and uses thereof” (Board of Regents, The University of Texas System, priority 2006, dated 2019).
# T1: CCK2R (Rattus norvegicus, UniProt P30553)
# T1 construct: endogenous in cells; host or cells: AR42J cells
# T1 sequence (P30553 1-452): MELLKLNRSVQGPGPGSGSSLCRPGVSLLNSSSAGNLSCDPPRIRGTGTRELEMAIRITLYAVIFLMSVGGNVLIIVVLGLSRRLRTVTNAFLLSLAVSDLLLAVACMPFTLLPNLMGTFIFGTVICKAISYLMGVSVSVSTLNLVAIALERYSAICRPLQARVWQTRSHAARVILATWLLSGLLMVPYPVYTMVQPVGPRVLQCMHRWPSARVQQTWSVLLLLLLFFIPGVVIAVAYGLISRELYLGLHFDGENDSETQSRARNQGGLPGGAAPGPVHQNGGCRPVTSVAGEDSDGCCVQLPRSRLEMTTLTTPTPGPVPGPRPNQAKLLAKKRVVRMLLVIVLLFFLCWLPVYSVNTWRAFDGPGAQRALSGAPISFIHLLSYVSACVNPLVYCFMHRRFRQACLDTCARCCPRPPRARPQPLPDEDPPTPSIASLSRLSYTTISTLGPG
# B1: PG: full-length recombinant human progastrin PG1-80, 80 amino acids (SEQ ID NO:3), generated in E. coli (protein)
# chain: SWKPRSQQPDAPLGTGANRDLELPWLEQQGPASHHRRQLGPQGPPHLVADPSKKQGPWLEEEEEAYGWMDFGRRSAEDEN
# modifications: sequence of progastrin peptide expressed by recombinant expression vector
# B2: rhPG fusion protein (FP): full length human progastrin protein fused with carrier protein thioredoxin (from bacteria), expressed in E. coli, used as immunogen (protein)
# chain: B1 chain
# modifications: left off: large carriers; small tags and cut ends
# notes: full length human progastrin protein fused with carrier protein thioredoxin (from bacteria), expressed in E. coli, used as immunogen
# Legend:
# [1] = tested on: progastrin; assay: Anti-progastrin antibody titers in immunized mice (solid phase ELISA); type: in vivo, mouse; details: for anti-PG-antibody titers: PS21 transgenic and WT mice, CFA/IFA, s.c. day 1, 21, 42
# [2] = tested on: aberrant crypt foci in PS21 (Fabp-PG) mice; assay: Aberrant crypt foci in response to AOM in immunized PS21 Fabp-PG transgenic mice; type: in vivo, mouse; details: immunized PS21 mice vs wild type mice
# Description: Aberrant crypt forci (ACFs) are pre-neoplastic markers of colon carcinogenesis and represent dysplastic growth of colonic crypts, which is the earliest stage of pre-cancerous changes in the colonic mucosa as described in detail previously (Singh et al, 2000b). […] These mice were immunized with either thioredoxin, or the progastrin peptide alone or the fusion protein (FP) which contained thioredoxin and progastrin.
# All injections were administered subcutaneously. […] The ACFs were then counted.
# [3] = tested on: thioredoxin; details: all mouse groups (WT and PS21)
# thioredoxin, sequence (P0AA25 whole entry): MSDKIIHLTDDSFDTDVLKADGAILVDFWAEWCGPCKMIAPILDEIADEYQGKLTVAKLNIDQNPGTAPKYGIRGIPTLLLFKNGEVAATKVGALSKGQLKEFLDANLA
# Description: Briefly, transgenic mice expressing human progastrin (PS21) and wild type mice were divided into 3 groups and immunized with (a) recombinant thioredoxin, (b) a recombinant fusion protein where human progastrin was fused with thioredoxin and recombinant progastrin, all proteins were expressed in E. coli and purified from cell extract. Each protein was emulsified using CFA/IFA (Sigma) as an adjuvant. The mice that received vaccine emulsified using CFA on day 1 followed by two subsequent immunization using IFA on day 21 and day 42. All injections were administered subcutaneously. Mice were bled and serum prepared to estimate the titers once a week for 3 weeks, 15 days after the final immunization.
# The antibody tires in serum were determined by solid phase ELISA using limiting dilution method. Briefly, 96 wells PVC ELISA plates (Falcon) were coated with 3 different recombinant protein expressed in E. coli that were used to vaccinate mice i.e. recombinant thioredoxin, Thioredoxin-PG fusion protein and recombinant PG. Recombinant proteins were dissolved in carbonate buffer pH 9.0 and coated at a concentration of 50 μg/50 μl/well. The plates were incubated overnight at 4° C. Following day the plates were flipped and the well were blocked with 100 μl 2% non fat dry milk (NFDM) and plated were incubated at 37° C. for 3-4 hours. […] The ELISA plated were them read in plate reader at 490 nm.
# [4] = target: T2, specific binding sites for rhPG (Annexin II) (Rattus norvegicus, UniProt Q07936); assay: Displacement of 125I-rhPG binding to AR42J and IEC cells; details: 1.0 nM 125I-rhPG
# T2 construct: endogenous in cells; host or cells: AR42J cells; IEC cells
# T2 sequence (Q07936 2-339 limits assumed): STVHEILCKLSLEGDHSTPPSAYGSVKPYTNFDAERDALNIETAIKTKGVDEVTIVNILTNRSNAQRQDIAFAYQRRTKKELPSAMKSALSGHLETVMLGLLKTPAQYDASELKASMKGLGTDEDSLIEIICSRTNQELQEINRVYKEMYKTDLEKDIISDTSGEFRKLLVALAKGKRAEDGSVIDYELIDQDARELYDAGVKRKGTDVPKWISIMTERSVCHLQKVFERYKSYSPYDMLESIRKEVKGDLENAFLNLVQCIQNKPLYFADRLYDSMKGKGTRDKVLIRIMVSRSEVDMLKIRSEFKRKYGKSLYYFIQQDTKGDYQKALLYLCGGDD
# Description: FIGS. 8A-8C show binding of ^125I-rhPG and ^125I-BH-CCK8 to a pancreatic cancer cell line, AR42J and intestinal epithelial cells (IEC). […] The relative binding affinity of the gastrin like peptides for the specific binding sites for rhPG (FIGS. 8A and B) (Annexin II) and CCK8 (FIG. 8C) to CCK2R was calculated. Data in each point represents the mean values of triplicate measurements from a single experiment and is representative of 2 similar experiments. The intra-experimental variation for each data point was <5-10%. The nM concentration of each peptide used is presented in a log-scale on the x-axis; the excess unlabeled peptide used for displacing the binding of the radio labeled ligand is presented in parentheses. The % loss in the relative binding of the radio labeled ligand in the presence of the increasing concentrations of the indicated non-labeled peptide is presented on the y-axis. IEC cells lack CCK2R binding sites and therefore binding with radio-labeled CCK8 was not examined with these cells.
# The full-length recombinant human PG1-80 (rhPG) was generated in an E. coli expression system and purified and confirmed as described previously (Singh et al, 2003). rhPG was radio labeled with Na ^125I (Amersham, Chicago, Ill.), and the intact ^125I-rhPG purified by HPLC as described previously (Singh et al, 2003). For these experiments, AR42J cells were expanded in vitro in […] and grown to subconfluence in the growth medium containing 10% FCS. […] The binding data was analyzed by a Scatchard plot as described previously (Singh et al, 1995). […]
# In order to define the RBA of various peptides for the PG binding sites on the cells, cells in suspension were incubated with 1.0 nM ^125I-rhPG in the presence or absence of increasing concentrations (0.1 nM-10.0 μM) of either the homologous or heterologous peptide. Non-specific binding was determined in the presence of 1000× excess of the non-labeled homologous peptide. […] Cell pellets were counted for ^125I in a gamma counter with ˜70% efficiency for ^125I. […]
# [5] = target: T1, CCK2R; assay: Displacement of 125I-BH-CCK8 binding to AR42J cells
# Description: Cells were incubated with the indicated radio labeled ligand in the presence or absence of increasing concentrations of either CCK8, G17 or rhPG. The relative binding affinity of the gastrin like peptides for the specific binding sites for rhPG (FIGS. 8A and B) (Annexin II) and CCK8 (FIG. 8C) to CCK2R was calculated.
# In a few experiments, ^125I-Bolton Hunter-CCK-8 (Amersham Biosciences, Piscataway, N.J.) was used as the radiolabeled ligand and the RBA of gastrin like peptides for displacing the binding of ^125I-BH-CCK8 to AR42J cells examined by our published methods (Singh et al, 1995).
# [6] = tested on: intestinal epithelial cells (IEC), colon cancer cells and pancreatic cancer cells; details: cited from earlier work
# [7] = tested on: mouse colon cancer (CA) cells; assay: Growth of mouse colon cancer (CA) cells in immunized Balb/c mice; type: in vivo; details: CA cells inoculated at week 10, sacrificed week 14, control adjuvant alone, listed as hPG-immunogen
# Description: (§1) FIGS. 6A-6C show immune response induced by hPG-fusion protein (FP) immunogen in different mouse models. […] The immunized Balb/c mice were inoculated with mouse CA cells at week 10 and sacrificed at week 14 and the tumors in the mice were weighed. Control mice received adjuvant alone. The weight of the tumors is indicated by an arrow against Ab titer of each mouse in mgs. Tumor weights from 3 of 6 animals are presented. […] FIGS. 6B and 6C show effect of vaccination with rhPG-FP immunogen on colon carcinogenesis in FVB/N mice. FVB/N mice were immunized with the hPG-fusion protein (FP) immunogen by 3-4 weekly injections and the PG-Ab titers were measured as described for the Balb/c mice. Once the mice developed significant PG-Ab titers, the mice were treated with azoxymethane (AOM) and the total number and size of tumors measured after 6 months of AOM treatment. The number of tumors (FIG. 6B) and the tumor burden (FIG. 6C) is presented herein. *=p<0.05 vs control values. Control mice were immunized with adjuvant alone.
# (§2) Since autocrine and endocrine PG might be playing an important role in colon carcinogenesis, the possibility of using an rhPG fusion protein as an immunogen for treatment purposes was examined. Briefly, the rhPG fusion protein (FP) was used as an immunogen in Balb/C, FVB/N and FABP-PG mice. […]
# [8] = tested on: colon tumors in FVB/N mice; assay: AOM-induced colon carcinogenesis in immunized FVB/N mice; type: in vivo, mouse; details: 6 months after AOM, vs adjuvant alone
# Description: as §1, §2
molecule,measurement,setting,value
"thioredoxin: recombinant bacterial thioredoxin carrier protein expressed in E. coli, used alone as immunogen [reference compound]",anti-PG-antibody titers,[1],not effective at all
same,development of ACF in response to AOM,[2],significantly enhanced
same,anti-thioredoxin-antibody titers,[3],significant titers
G17: 17 amino acid C-terminally amidated gastrin peptide,displacement of binding of radio-labeled rhPG / binding affinity for PG binding sites,[4],negligible binding affinity
"CCK: cholecystokinin (CCK-8), amidated peptide closely related to gastrin",displacement of binding of radio-labeled rhPG / binding affinity for PG binding sites,[4],negligible binding affinity
B1,anti-PG-antibody titers,[1],much less effective
same,anti-PG-antibody titers,[1]; listed as PG peptide,much lower levels
same,development of ACF in response to AOM,[2],significantly enhanced
same,displacement of binding of radio-labeled rhPG / binding affinity for PG binding sites,[4],dose-dependently displaced
same,displacement of binding of 125I-BH-CCK8 to CCK2R,[5],largely ineffective
same,growth factor-like effects on cells,[6],potent growth factor-like effects
B2,CA tumor weights reduced compared to control mice,[7],15-30%
same,titers of specific anti-hPG-Abs,"[1]; Balb/C, FVB/N and FABP-PG mice, within 4-8 weeks of vaccination",very high titers
same,"generation of PG antibodies, FP vs PG alone",[1]; PS21 mice,2 fold
same,anti-PG-antibody titers,[1],2 fold to much higher titers
same,anti-PG-antibody titers,[1]; listed as progastrin fusion protein,strong response
same,total number of tumors,[8],significantly (p<0.05) reduced
same,tumor burden/mouse,[8],significantly (p<0.05) reduced
same,development of ACF in response to AOM,[2],complete attenuation
